The values below come from patent US20130210673A1 (published 2013).

To fix the notation:
T1: human C-reactive protein (human, UniProt P02741 19-224, biotinylated or conjugated to AlexaFluor488 for labeling)
T1 construct: Bought protein; also called CRP; C-RP
T1 sequence (looked up): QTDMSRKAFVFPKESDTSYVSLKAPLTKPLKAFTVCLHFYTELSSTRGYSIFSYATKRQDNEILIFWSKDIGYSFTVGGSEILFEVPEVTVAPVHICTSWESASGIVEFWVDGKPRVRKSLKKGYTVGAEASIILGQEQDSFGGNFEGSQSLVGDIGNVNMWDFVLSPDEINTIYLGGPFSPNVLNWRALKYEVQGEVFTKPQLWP

B1: SEQ ID NO 232 (peptide)
peptide: RLEICQNVCYYLGTL
notes: insert only
B2: SEQ ID NO 234 (peptide)
peptide: ICSYVMYTTCFLRVY
notes: insert only
B3: SEQ ID NO 233 (peptide)
peptide: TVLICMNICWTGETQ
notes: insert only
B4: SEQ ID NO 255 (peptide)
peptide: EWACNDRGFNCQLQR
notes: insert only
B5: SEQ ID NO 247 (peptide)
peptide: YPPRFQYYRFYYRGP
notes: insert only
B6: SEQ ID NO 253 (peptide)
peptide: MIFNSRGFLSLMSSG
notes: insert only
B7: SEQ ID NO 256 (peptide)
peptide: FPIYNQRGFITLASP
notes: insert only
B8: SEQ ID NO 236 (peptide)
peptide: TVLICMNICWTGETQ
notes: insert only
B9: SEQ ID NO 238 (peptide)
peptide: YWVCMNVCMYYTARQ
notes: insert only
B10: SEQ ID NO 239 (peptide)
peptide: LPVWCVMHVCLTSSR
notes: insert only
B11: SEQ ID NO 245 (peptide)
peptide: IMMECFYVCTIANTQ
notes: insert only
B12: SEQ ID NO 244 (peptide)
peptide: ADTICWYVCTISVHA
notes: insert only
B13: SEQ ID NO 237 (peptide)
peptide: ICSYVMYTTCFLRVY
notes: insert only
B14: SEQ ID NO 241 (peptide)
peptide: NEWYCQNVCERMPHS
notes: insert only
B15: SEQ ID NO 235 (peptide)
peptide: RLEICQNVCYYLGTL
notes: insert only
B16: SEQ ID NO 242 (peptide)
peptide: TWVQCTMVCYGMSTT
notes: insert only

For one test, the target named is T2, streptavidin (UniProt P22629 37-163, limits assumed).
T2 construct: Used as streptavidin-phycoerythrin in flow cytometry and as coated beads for YFP-SA-1; also called SA; streptavidin-phycoerythrin
T2 sequence (P22629 37-163 limits assumed): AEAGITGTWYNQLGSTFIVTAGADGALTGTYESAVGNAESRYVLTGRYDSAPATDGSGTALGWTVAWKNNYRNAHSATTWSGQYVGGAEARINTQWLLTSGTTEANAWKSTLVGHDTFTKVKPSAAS
In words: flow cytometry, equilibrium. How it is done:
The corresponding mean fluorescence versus concentration data were fit to a monovalent binding isotherm to obtain the apparent KD. Dissociation rates of streptavidin-binding clones were measured in the presence of about 1 to about 2 μM biotin. Cells were labeled with 50 nM streptavidin-phycoerythrin for 30 minutes at room temperature. The cells were then pelleted, resuspended in PBS with biotin, and immediately analyzed by flow cytometry. Fluorescence data were collected continuously for about five minutes. The dissociation rate constants were then determined as described previously. See Daugherty, P. S., et al. (1998) Protein Eng. 11(9):825-832, which is herein incorporated by reference.
A general note: In flow cytometry, cells or beads pass a laser one at a time.
For B1, the binding result is “binds”.

For the molecule B2, the binding result is “binds”.

For B3, the binding result is “binds”.

A further test concerns the target T1, human C-reactive protein. The test can be described thus: bacterial display selection.
For B4, the binding result is listed as “binds”.

B5: the binding result is reported as “binds”.

On to B6, for which the binding result is reported as “binds”.

On to B7, for which the binding result was “binds”.

The next test has as its target T2, streptavidin. The test can be described thus: bacterial display selection.
B8: the binding result is recorded as “binds”.

For B9, the binding result is “binds”.

In the case of B10, the binding result was “binds”.

B11: the binding result was “binds”.

For B12, the binding result is on record as “binds”.

For the molecule B13, the binding result is given as “binds”.

As for B14, the binding result was “binds”.

Regarding B15, the binding result is “binds”.

With B16, the binding result was “binds”.
